Test results from paper PMC12618784.
One block for each binder: values may come before it.

Tests used:
[1] = biological target: T1, Porin, Q94920; assay: pull-down (anti-HA immunoprecipitation) with mass spectrometry; conditions: chain shown with the change; 3rd instar larval muscle tissue (mef2-Gal4); four individual biological replicates; read off a plot
T1 chain: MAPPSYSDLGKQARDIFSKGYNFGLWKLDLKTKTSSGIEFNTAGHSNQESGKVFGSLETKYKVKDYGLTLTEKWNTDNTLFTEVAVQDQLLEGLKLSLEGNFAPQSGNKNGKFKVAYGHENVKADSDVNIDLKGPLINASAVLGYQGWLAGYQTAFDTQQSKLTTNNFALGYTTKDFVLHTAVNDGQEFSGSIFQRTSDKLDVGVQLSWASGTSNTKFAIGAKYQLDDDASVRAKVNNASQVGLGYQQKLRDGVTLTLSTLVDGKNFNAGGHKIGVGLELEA

[2] = biological target: T2, Porin::HA, Q94920; assay: co-immunoprecipitation (anti-GFP beads), quantified blot; conditions: chain shown with the change; transfected Sf21 cells; values normalised to the corresponding amounts of precipitated Dmel\Tmem43; parent: est. 0.75; read off a plot
T2 chain: T1 chain

[3] = biological target: T3, Mitofilin, P91928; assay: TurboID biotin proximity labelling with mass spectrometry; conditions: chain shown with the change; 3rd instar larval muscle tissue (mef2-Gal4); parent: 1
T3 chain: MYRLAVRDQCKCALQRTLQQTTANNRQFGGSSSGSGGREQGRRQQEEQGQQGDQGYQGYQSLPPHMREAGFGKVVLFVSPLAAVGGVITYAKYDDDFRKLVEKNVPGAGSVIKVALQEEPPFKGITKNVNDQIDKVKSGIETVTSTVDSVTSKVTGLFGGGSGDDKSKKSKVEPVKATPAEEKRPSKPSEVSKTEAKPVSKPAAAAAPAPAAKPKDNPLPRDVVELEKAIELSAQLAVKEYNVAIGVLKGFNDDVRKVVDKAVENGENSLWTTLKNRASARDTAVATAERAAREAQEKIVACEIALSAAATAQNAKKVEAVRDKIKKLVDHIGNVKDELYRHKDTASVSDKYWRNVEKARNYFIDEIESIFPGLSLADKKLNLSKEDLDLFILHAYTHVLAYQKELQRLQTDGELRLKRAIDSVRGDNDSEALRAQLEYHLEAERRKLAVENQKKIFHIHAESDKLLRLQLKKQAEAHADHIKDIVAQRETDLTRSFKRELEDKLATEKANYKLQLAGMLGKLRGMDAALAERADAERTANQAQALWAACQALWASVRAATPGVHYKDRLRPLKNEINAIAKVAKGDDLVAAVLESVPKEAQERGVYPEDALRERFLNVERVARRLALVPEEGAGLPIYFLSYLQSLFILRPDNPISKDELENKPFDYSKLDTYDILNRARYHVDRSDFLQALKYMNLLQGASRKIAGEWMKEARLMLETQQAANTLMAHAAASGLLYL

[4] = biological target: SERCA, P22700; assay: as above; conditions: chain shown with the change; 3rd instar larval muscle tissue (mef2-Gal4); parent: 1
Sequence of SERCA, P22700 (P22700 whole entry, the tested form may be a part): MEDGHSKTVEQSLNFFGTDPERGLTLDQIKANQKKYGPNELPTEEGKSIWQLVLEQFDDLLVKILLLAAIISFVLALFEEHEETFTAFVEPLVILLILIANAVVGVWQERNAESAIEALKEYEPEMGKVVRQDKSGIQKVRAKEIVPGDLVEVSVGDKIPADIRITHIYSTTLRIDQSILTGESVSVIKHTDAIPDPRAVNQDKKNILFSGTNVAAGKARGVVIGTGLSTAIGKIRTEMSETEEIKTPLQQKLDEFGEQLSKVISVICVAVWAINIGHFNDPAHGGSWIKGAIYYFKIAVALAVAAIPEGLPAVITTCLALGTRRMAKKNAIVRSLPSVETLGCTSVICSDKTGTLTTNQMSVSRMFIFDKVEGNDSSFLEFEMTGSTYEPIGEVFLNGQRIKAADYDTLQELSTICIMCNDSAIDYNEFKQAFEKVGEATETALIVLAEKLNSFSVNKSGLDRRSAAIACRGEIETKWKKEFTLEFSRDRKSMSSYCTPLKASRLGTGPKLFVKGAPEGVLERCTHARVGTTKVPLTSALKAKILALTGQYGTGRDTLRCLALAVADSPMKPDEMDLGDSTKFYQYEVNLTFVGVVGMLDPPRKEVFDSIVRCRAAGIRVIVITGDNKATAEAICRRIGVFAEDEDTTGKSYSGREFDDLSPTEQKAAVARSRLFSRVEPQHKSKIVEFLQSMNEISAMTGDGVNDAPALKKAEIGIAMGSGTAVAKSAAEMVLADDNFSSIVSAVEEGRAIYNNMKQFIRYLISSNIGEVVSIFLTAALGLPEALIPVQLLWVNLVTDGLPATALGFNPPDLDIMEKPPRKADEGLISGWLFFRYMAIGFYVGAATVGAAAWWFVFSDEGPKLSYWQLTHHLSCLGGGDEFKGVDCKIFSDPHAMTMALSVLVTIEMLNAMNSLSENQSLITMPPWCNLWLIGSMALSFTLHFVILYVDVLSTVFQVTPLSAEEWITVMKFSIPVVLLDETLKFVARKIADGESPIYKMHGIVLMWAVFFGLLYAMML

[5] = biological target: T4, Sphingosine-1-phosphatase lyase (Sply), Q9V7Y2; assay: as above; conditions: chain shown with the change; 3rd instar larval muscle tissue (mef2-Gal4); parent: 1
T4 chain: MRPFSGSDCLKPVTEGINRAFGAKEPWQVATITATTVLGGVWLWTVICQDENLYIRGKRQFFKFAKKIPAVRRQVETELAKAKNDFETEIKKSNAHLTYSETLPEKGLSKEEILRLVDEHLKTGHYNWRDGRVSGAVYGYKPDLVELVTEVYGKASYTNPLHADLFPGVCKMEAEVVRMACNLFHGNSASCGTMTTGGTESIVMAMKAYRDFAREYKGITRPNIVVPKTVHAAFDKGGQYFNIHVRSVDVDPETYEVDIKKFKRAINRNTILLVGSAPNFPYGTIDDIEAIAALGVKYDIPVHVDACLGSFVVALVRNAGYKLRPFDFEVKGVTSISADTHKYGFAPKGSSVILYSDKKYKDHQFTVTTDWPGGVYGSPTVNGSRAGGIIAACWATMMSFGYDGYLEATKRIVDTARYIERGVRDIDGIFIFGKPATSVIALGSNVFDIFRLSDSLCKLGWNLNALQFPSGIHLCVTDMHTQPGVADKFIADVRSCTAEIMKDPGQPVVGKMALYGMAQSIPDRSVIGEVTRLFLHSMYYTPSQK

[6] = biological target: T1, Porin, Q94920; assay: as above; conditions: chain shown with the change; 3rd instar larval muscle tissue (mef2-Gal4); parent: 1

ratio to parent [1]: 0.4
B1: Dmel\Tmem43wt::HA, Q9VSB9 p.S333L (protein)
chain: MASLSETLRSHWPIALFGVILFVAGGTELYWNEGRAVHNMMALDEAHADIYSVRFTEEEQEVGLEGRIVHLSGPILVGEPLTEPDYNIQLLAVKLRRRVQMYQWVEEAVEHNYGDSVGTTHSDSRTYYYTREWRDKIVDSRNFYNRHGHTNPSHFPIESHVQVADAVFIGRYELGAEVKEKFNNYQELTSDIRPEDSGVKLHLGIYYHTNDVFNPEVGDLRLLFSFAGMEGEVFSVVGKLSGNKLVPYITSRGVPVLLVYPGGLSVQEVFRLEARAQVLHTWWWRFVGWLLIFFGVTCNTKILRLLFVRVPLLVALAPDPQFPVTGNLLIAFLLALTIAAVAWILHRPVIGACLLLAGASPYVWFTRNLVDYHRLD

response [2]: 0.05
B2: Dmel\Tmem43wt::GFP, Q9VSB9 p.S333L (protein)
chain: B1 chain

ratio to parent [3]: 0.17 | ratio to parent [4]: 0.17 | ratio to parent [5]: 0.23 | ratio to parent [6]: 0.13
B3: Dmel\Tmem43wt::TurboID, Q9VSB9 p.S333L (protein)
chain: B1 chain
